Data on eight sequences can be found in the supplement of paper PMC11246515.

± gives the standard deviation of the averaged measurements.

The nature of this data set: total protein half-life in vivo (active degradation + dilution); higher = more stable protein.
Where [1] appears, read: E. coli NCM3722 delta-clpP delta-lon delta-hslV, growth: N-lim chemostat, doubling time 6 h.
Setting [2] is: E. coli NCM3722 delta-clpP, growth: N-lim chemostat, doubling time 6 h.
Setting [3] is: E. coli NCM3722 delta-smpB, growth: N-lim chemostat, doubling time 6 h.
Setting [4] is: wild type E. coli NCM3722, growth: C-lim chemostat, doubling time 3 h.
Setting [5] is: wild type E. coli NCM3722, growth: C-lim chemostat, doubling time 6 h.
Setting [6] is: wild type E. coli NCM3722, growth: C-lim chemostat, doubling time 12 h.
[7] abbreviates: wild type E. coli NCM3722, growth: N-lim chemostat, doubling time 6 h.
Setting [8] is: wild type E. coli NCM3722, growth: N-lim chemostat, doubling time 12 h.
Setting [9] is: wild type E. coli NCM3722, growth: P-lim chemostat, doubling time 6 h.
[10] abbreviates: wild type E. coli NCM3722, growth: P-lim chemostat, doubling time 12 h.
Where [11] appears, read: E. coli NCM3722 delta-hslV, growth: N-lim chemostat, doubling time 6 h.
Where [12] appears, read: E. coli NCM3722 delta-lon, growth: N-lim chemostat, doubling time 6 h.

Take “MEQSVANLVDMRDVSFTRGNRCIFDNISLTVPRGKITAIMGPSGIGKTTLLRLIGGQIAPDHGEILFDGENIPAMSRSRLYTVRKRMSMLFQSGALFTDMNVFDNVAYPLREHTQLPAPLLHSTVMMKLEAVGLRGAAKLMPSELSGGMARRAALARAIALEPDLIMFDEPFVGQDPITMGVLVKLISELNSALGVTCVVVSHDVPEVLSIADHAWILADKKIVAHGSAQALQANPDPRVRQFLDGIADGPVPFRYPAGDYHADLLPGS”: the “total protein half-life in vivo” value runs as follows: under setting [1], 6.3 ± 0.54 h; under setting [2], 6.19 ± 0.062 h; under setting [3], 5.79 ± 0.68 h; under setting [4], 3.08 ± 0.07 h; under setting [5], 7.05 ± 1.1 h; under setting [6], 12.3 ± 2 h. Besides, the “total protein half-life in vivo” value reads like this: under setting [7], 6.18 ± 0.23 h; under setting [8], > 16 h; under setting [9], 7.04 ± 0.68 h; under setting [10], 14.1 ± 0.78 h.

Turning to “MRNRTLADLDRVVALGGGHGLGRVLSSLSSLGSRLTGIVTTTDNGGSTGRIRRSEGGIAWGDMRNCLNQLITEPSVASAMFEYRFGGNGELSGHNLGNLMLKALDHLSVRPLEAINLIRNLLKVDTHLIPMSEHPVDLMAIDDQGHEVYGEVNIDQLTTPIQELLLTPNVPATREAVHAINEADLIIIGPGSFYTSLMPILLLKEIAQALRRTPAPMVYIGNLGRELSLPAANLKLESKLAIMEQYVGKKVIDAVIVGPKVDVSAVKERIVIQEVLEASDIPYRHDRQLLHNALEKALQALG”, the “total protein half-life in vivo” value was determined as 4.62 ± 0.5 h under setting [1]; 4.2 ± 0.13 h under setting [2]; 4.3 ± 0.14 h under setting [11]; 5.33 ± 0.18 h under setting [12]; 4.5 ± 0.17 h under setting [3]; 3.16 ± 0.085 h under setting [4]. In addition, the “total protein half-life in vivo” value worked out at 5.45 ± 0.32 h under setting [5]; 10.3 ± 1.7 h under setting [6]; 4.6 ± 0.073 h under setting [7]; 7.33 ± 0.076 h under setting [8]; 6.31 ± 0.59 h under setting [9]; 12.1 ± 0.98 h under setting [10].

Take “MIPFNAPPVVGTELDYMQSAMGSGKLCGDGGFTRRCQQWLEQRFGSAKVLLTPSCTASLEMAALLLDIQPGDEVIMPSYTFVSTANAFVLRGAKIVFVDVRPDTMNIDETLIEAAITDKTRVIVPVHYAGVACEMDTIMALAKKHNLFVVEDAAQGVMSTYKGRALGTIGHIGCFSFHETKNYTAGGEGGATLINDKALIERAEIIREKGTNRSQFFRGQVDKYTWRDIGSSYLMSDLQAAYLWAQLEAADRINQQRLALWQNYYDALAPLAKAGRIELPSIPDGCVQNAHMFYIKLRDIDDRSALINFLKEAEIMAVFHYIPLHGCPAGEHFGEFHGEDRYTTKESERLLRLPLFYNLSPVNQRTVIATLLNYFS”: the “total protein half-life in vivo” value reads like this: under setting [1], 4.72 ± 0.099 h; under setting [2], 4.4 ± 0.0057 h; under setting [11], 4.83 ± 0.25 h; under setting [12], 4.45 h; under setting [3], 4.25 ± 0.17 h; under setting [4], 2.89 ± 0.68 h. The “total protein half-life in vivo” value is 6.6 ± 1 h under setting [5]; 12.5 ± 1.2 h under setting [6]; 5.2 h under setting [7]; 8.13 ± 0.2 h under setting [8]; 6.1125 ± 0.0047 h under setting [9]; 12.33 ± 0.05 h under setting [10].

As to “MRNHQLGIYEKALAKDLSWPERLVLAKSCGFDFVEMSVDETDERLSRLDWSAAQRTSLVAAMIETGVGIPSMCLSAHRRFPFGSRDEAVRERAREIMSKAIRLARDLGIRTIQLAGYDVYYEDHDEGTRQRFAEGLAWAVEQAAASQVMLAVEIMDTAFMNSISKWKKWDEMLASPWFTVYPDVGNLSAWGNDVPAELKLGIDRIAAIHLKDTQPVTGQSPGQFRDVPFGEGCVDFVGIFKTLHKLNYRGSFLIEMWTEKAKEPVLEIIQARRWIEARMQEAGFIC”, the “total protein half-life in vivo” value runs as follows: under setting [4], 1.06 h; under setting [5], 1.6 ± 0.19 h; under setting [6], 2.24 h.

Consider “MSDQIIARVSQSLAKEQSLESLVRQLLEMLEMVTDMESTYLTKVDVEARLQHIMFARNSQKMYIPENFTVSWDYSLCKRAIDENCFFSDEVPDRWGDCIAARNLGITTFLSTPIHLPDGSFYGTLCAASSEKRQWSERAEQVLQLFAGLIAQYIQKEALVEQLREANAALIAQSYTDSLTGLPNRRAIFENLTTLFSLARHLNHKIMIAFIDLDNFKLINDRFGHNSGDLFLIQVGERLNTLQQNGEVIGRLGGDEFLVVSLNNENADISSLRERIQQQIRGEYHLGDVDLYYPGASLGIVEVDPETTDADSALHAADIAMYQEKKHKQKTPFVAHPALHS”, for which the “total protein half-life in vivo” value under setting [4] came out at 0.233 h.

On to “MTKTLLDGPGRVLESVYPRFLVDLAQGDDARLPQAHQQQFRERLMQELLSRVQLQTWTNGGMLNAPLSLRLTLVEKLASMLDPGHLALTQIAQHLALLQKMDHRQHSAFPELPQQIAALYEWFSARCRWKEKALTQRGLLVQAGDQSEQIFTRWRAGAYNAWSLPGRCFIVLEELRWGAFGDACRLGSPQAVALLLGDLLEKATQHLAESINAAPTTRHYYHQWFASSTVPTGGEHADFLSWLGKWTTADKQPVCWSVTQRWQTVALGMPRLCSAQRLAGAMLEEIFSVNLA”, for which the “total protein half-life in vivo” value under setting [3] is 3.06 h; the “total protein half-life in vivo” value under setting [4] was 2.56 ± 0.43 h; the “total protein half-life in vivo” value under setting [5] stood at 5.83 ± 1.1 h; the “total protein half-life in vivo” value under setting [6] came out at 7.8 h; the “total protein half-life in vivo” value under setting [10] stood at 12.1 ± 0.79 h.

“MTSLYLASGSPRRQELLAQLGVTFERIVTGIEEQRQPQESAQQYVVRLAREKARAGVAQTAKDLPVLGADTIVILNGEVLEKPRDAEHAAQMLRKLSGQTHQVMTAVALADSQHILDCLVVTDVTFRTLTDEDIAGYVASDEPLDKAGAYGIQGLGGCFVRKINGSYHAVVGLPLVETYELLSNFNALREKRDKHDG”: the “total protein half-life in vivo” value is 4.55 ± 0.58 h under setting [1]; 3.38 ± 0.24 h under setting [2]; 3.17 ± 0.25 h under setting [11]; 3.02 h under setting [12]; 3.26 ± 0.49 h under setting [3]; 3.2 ± 0.29 h under setting [4]. The “total protein half-life in vivo” value reads like this: under setting [5], 5.629 ± 0.034 h; under setting [6], 8.84 ± 0.45 h; under setting [7], 3.15 ± 0.4 h; under setting [8], 4.52 h; under setting [9], 5.41 h; under setting [10], 11.9 ± 1.7 h.

“MNFPLIANIVVFVVLLFALAQTRHKQWSLAKKVLVGLVMGVVFGLALHTIYGSDSQVLKDSVQWFNIVGNGYVQLLQMIVMPLVFASILSAVARLHNASQLGKISFLTIGTLLFTTLIAALVGVLVTNLFGLTAEGLVQGGAETARLNAIESNYVGKVSDLSVPQLVLSFIPKNPFADLTGANPTSIISVVIFAAFLGVAALKLLKDDAPKGERVLAAIDTLQSWVMKLVRLVMQLTPYGVLALMTKVVAGSNLQDIIKLGSFVVASYLGLLIMFAVHGILLGINGVSPLKYFRKVWPVLTFAFTSRSSAASIPLNVEAQTRRLGVPESIASFAASFGATIGQNGCAGLYPAMLAVMVAPTVGINPLDPMWIATLVGIVTVSSAGVAGVGGGATFAALIVLPAMGLPVTLVALLISVEPLIDMGRTALNVSGSMTAGTLTSQWLKQTDKAILDSEDDAELAHH”: the “total protein half-life in vivo” value reads like this: under setting [1], 5.42 ± 0.17 h; under setting [2], 4.76 ± 0.058 h; under setting [11], 5.07 ± 0.26 h; under setting [12], 5 ± 0.65 h; under setting [3], 5.38 ± 0.78 h; under setting [4], 3.35 ± 0.46 h. The “total protein half-life in vivo” value was 6.36 ± 1.8 h under setting [5]; 11.4 ± 2 h under setting [6]; 4.95 ± 1.1 h under setting [7]; 8.91 ± 0.48 h under setting [8]; 5.29 ± 0.62 h under setting [9]; 7.43 ± 0.75 h under setting [10].
